Data from US20250002563A1 (published 2025).

Biological target: RBD (UniProt P0DTC2 319-541)
Assay: SPR

B1: Nb21 (VHH)
VHH: QVQLVESGGGLVQAGGSLRLSCAVSGLGAHRVGWFRRAPGKEREFVAAIGANGGNTNYLDSVKGRFTISRDNAKNTIYLQMNSLKPQDTAVYYCAARDIETAEYTYWGQGTQVTVSS
  Kd: < 1 pM
